Experiment [1] addresses LysP7951 full-length product (FLP), produced from the wild-type lysP7951 gene (Streptococcus thermophilus phage P7951). Put plainly: native MS; purified LysP7951 complex (co-produced, co-purified) in 150 mM ammonium acetate, about 10 μM, nano-ESI Q-TOF, positive mode, collision energy 0 V (15 and 100 V for dissociation).
The target is the same in experiment [2]. The experiment is described as follows: SEC; analytical gel filtration (Superose 6 10/300 GL, calibrated) of single purified preparations; protein buffer (50 mM HEPES, 500 mM NaCl, 1% glycerol, pH 7), 0.4 mL/min; apparent molecular masses from elution volumes. On the technique in general: SEC sorts molecules by how far they enter the pores of the column.
The target of experiment [3] is LysP7951_(209-310) (Streptococcus thermophilus phage P7951). The experiment is described as above.
Experiment [4] shares this target. Put plainly: SAXS; LysP7951 CTP at 1.00, 1.85, 2.70 mg/mL in protein buffer, 20°C, BM29 beamline ESRF; molecular mass estimated from the scattering data.

Take “LysP7951 C-terminal product (CTP), produced from the internal translation start site of the wild-type lysP7951 gene (domain or fragment)”: the stoichiometry N (CTP subunits per FLP) in experiment [1] was found to be 5; in experiment [2], 4.
By stoichiometry N is commonly meant a count of units in the complex or per binding partner. Regarding LysP7951_(209-310) (domain or fragment), the stoichiometry N in experiment [3] is 7 subunits; in experiment [4], 6 to 7 subunits.

These data come from PMC9430671.
